From article PMC8725580
Changes are numbered by the printed parent chain.

How the values were obtained:
Details in all cases: 20 mM Tris pH 7.5, 1 mM CaCl2, 1 mM DTT, 10 ug/ml poly(dI-dC), 100 ug/ml BSA, 37 C, 10 min; probe 0.05 uM (0.1 uM restricted)
[1] = test system: T1, CovR D53A D52A (Streptococcus salivarius HSISS4), ORF:ee641105; experiment: EMSA
T1 sequence: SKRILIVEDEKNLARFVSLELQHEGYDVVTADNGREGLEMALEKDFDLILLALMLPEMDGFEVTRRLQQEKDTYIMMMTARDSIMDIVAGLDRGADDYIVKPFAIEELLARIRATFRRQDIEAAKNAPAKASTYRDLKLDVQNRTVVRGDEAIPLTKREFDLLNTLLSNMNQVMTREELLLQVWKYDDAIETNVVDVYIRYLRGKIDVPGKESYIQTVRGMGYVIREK

[2] = test system: T2, CovR WT (Strep-tagged) (Streptococcus salivarius HSISS4), ORF:ee641105; experiment: EMSA
T2 sequence: T1 sequence with A52D

[3] = test system: T3, CovR D53E D52E (Streptococcus salivarius HSISS4), ORF:ee641105; experiment: EMSA
T3 sequence: T1 sequence with A52E

[4] = test system: T3, CovR D53E D52E (Streptococcus salivarius HSISS4), ORF:ee641105; experiment: competition

Sequence	binding [1]	binding [2]	binding [3]	binding [4]
TTGATACAAAGGAAGGTCTTTCCTATATAAAATGTATAAAAATAGCTTATTTTCACTATTGTTCTGTTAAAAATGCATTAACTGTATATTAATTATATTATAATTATGATATAATGTTTTTAAAATTTCGAAATAAAGGAGTGTCTCTTG (double strand) [PcomR HSISS4 (150 bp)]	binds more weakly	binds	binds	
AAAAATAATGAGCACTTAAAAGAATGGGATAAGGACAATATCAAAAATGTTGTTCTATCTCATTCTTTTTGTTTGAAACAGTTAATATGGTAGAGGCGTTTTTACTAGTAGCGTATGCTATAATAGAAAGATAGAAAGGAGGCCTTCATG (double strand) [PdnaE unlabeled competitor]				no binding
CAAGAGACACTCCTTTATTTCGAAATTTTAAAAACATTATATCATAATTATAATATAATTAATATACAGTTAATGCATTTTTAACAGAACAATAGTGAAAATAAGCTATTTTTATACATTTTATATAGGAAAGACCTTCCTTTGTATCAA (double strand) [PcomR unlabeled competitor]				binds
CCTGTAGTTCCCTTACATACAGTGCGTTACTTTGAGAATGCAGACCGCTCGACGATTCAGATGTTGCATGCCATCTCGCAAAACGTTTCCTTGTCAGAGGCCTCTATTTGTCCTATGAATCAGCTTCTTTTCTCGCCTCAAGAAATGGAA (double strand) [CDSdnaE unlabeled competitor]				no binding
